# Reference: publication PMC6086316
# Assays:
# [1] = biological target: recombinant mature interleukin-8 (IL-8) (human); assay: time-resolved fluorometric immunoassay (TRFIA); 6 pmol IL-8 or IL-1β coated on wells; C-His-emHofQ 10-740 nM in Delfia Assay Buffer, RT 1 h; Eu-N1 anti-6xHis antibody; one-to-one fit
# [2] = biological target: human mature interleukin-1β (IL-1β, amino acids 117-269) (human); assay: as above
# [3] = biological target: recombinant mature interleukin-8 (IL-8) (human); assay: time-resolved fluorometric immunoassay (TRFIA); 60 pmol IL-8 or IL-1β coated on wells; emHofQ wild type and mutants 5 nM-2 μM, 4°C overnight; Eu-N1 anti-6xHis antibody; apparent Kd
# [4] = biological target: human mature interleukin-1β (IL-1β, amino acids 117-269) (human); assay: as above
# [5] = biological target: recombinant mature interleukin-8 (IL-8) (human); assay: ELISA; cytokines (6 pmol per well) coated on Maxisorp plates; 490 nM emHofQ with C-terminal 8-His tail in PBS, 4°C overnight; detection with His-Probe-HRP; values compared with BSA control
# [6] = biological target: human mature interleukin-1β (IL-1β, amino acids 117-269) (human); assay: as above
# [7] = biological target: human mature interleukin-1β (IL-1β, amino acids 117-269) (human); assay: thermal shift assay (differential scanning fluorometry); PBS, SYPRO orange; 5 μM emHofQ with 5-200 μM IL-8, or 5 μM IL-1β with 2.5-50 μM emHofQ; heated 20-99°C
# [8] = biological target: recombinant emHofQ (without a His tail) (Aggregatibacter actinomycetemcomitans); assay: as above
# [9] = biological target: N-His-emHofQ (Aggregatibacter actinomycetemcomitans); assay: SPR; Biacore X; N-His-emHofQ coupled to Ni-NTA chip (115-199 RU); IL-8 injected at 1-15 000 nM, 30 μl/min; 10 mM HEPES, 150 mM NaCl, 0.005% P-20, pH 7.4; one-site binding model; apparent
# Sequence of human mature interleukin-1β (IL-1β, amino acids 117-269) (human) (P01584 117-269): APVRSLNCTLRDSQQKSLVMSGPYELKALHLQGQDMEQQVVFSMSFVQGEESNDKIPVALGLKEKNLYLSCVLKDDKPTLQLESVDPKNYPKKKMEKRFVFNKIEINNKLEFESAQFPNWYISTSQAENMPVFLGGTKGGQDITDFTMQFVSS
substance,measurement,setting,value
"C-His emHofQ (extramembranous domain of the secretin HofQ, C-terminal His tag) (domain or fragment)",Kd,[1],43 nM
same,Kd,[2],140 nM
same,Kd,[3],44 nM
same,Kd,[4],90 nM
same,fold binding over the control (BSA),[5],4 fold
same,fold binding over the control (BSA),[6],1.3 fold
"emHofQ_L1 (H136A, F137A, K139A) (domain or fragment)",Kd,[3],190 nM
"emHofQ_L1L2 (H136A, F137A, K139A, D165A, R166A) (domain or fragment)",Kd,[3],200 nM
"emHofQ_L2 (D165A, R166A) (domain or fragment)",Kd,[3],110 nM
recombinant emHofQ (without a His tail) (domain or fragment),Tm of IL-1β with 50 μM emHofQ (60.2°C without),[7],55.8 °C
recombinant mature interleukin-8 (IL-8) (natural protein),Tm of emHofQ with 200 μM IL-8 (45.3°C without),[8],51.7 °C
same,Kd,[9],2400 nM
